Literature values as cited in paper PMC2879464.
Where two headings read alike, the source gives them in different places.

Columns and labels:
cortactin (Homo sapiens) [1] = biological target: cortactin (Homo sapiens) (UniProt Q14247)
cortactin (Homo sapiens) [2] = biological target: cortactin (Homo sapiens) (UniProt Q14247); remark: listed apart in the source

Sequence of UniProt Q14247 (Q14247 whole entry): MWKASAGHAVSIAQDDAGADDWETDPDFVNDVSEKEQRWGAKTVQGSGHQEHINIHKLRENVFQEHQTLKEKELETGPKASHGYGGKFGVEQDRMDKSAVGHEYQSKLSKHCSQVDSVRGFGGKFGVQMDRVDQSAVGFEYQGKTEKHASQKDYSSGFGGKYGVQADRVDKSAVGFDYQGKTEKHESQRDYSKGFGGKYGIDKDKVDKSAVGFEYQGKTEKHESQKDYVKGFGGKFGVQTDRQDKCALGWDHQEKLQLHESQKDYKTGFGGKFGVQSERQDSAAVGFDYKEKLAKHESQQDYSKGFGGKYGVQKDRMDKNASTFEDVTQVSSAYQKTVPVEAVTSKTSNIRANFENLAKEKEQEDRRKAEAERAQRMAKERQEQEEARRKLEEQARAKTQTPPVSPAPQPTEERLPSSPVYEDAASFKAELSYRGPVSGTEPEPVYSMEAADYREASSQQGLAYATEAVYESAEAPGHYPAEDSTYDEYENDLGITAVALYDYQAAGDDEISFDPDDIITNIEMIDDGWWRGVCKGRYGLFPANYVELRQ

Kd (cortactin (Homo sapiens) [1]) | Kd (cortactin (Homo sapiens) [2]) | Substance
250 nM | – | nmMLCK2 (from UniProt Q15746)
– | 1000 nM | nmMLCK1 (from UniProt Q15746)
